{"source": "paper PMC12097070", "about": "(Advanced Science, 2025)", "details_in_all_cases": "both partners purified", "key": {"BSA protein": {"target": "BSA protein (Bos taurus (Bovine)., UniProt P02769)", "sequence (P02769 25-607)": "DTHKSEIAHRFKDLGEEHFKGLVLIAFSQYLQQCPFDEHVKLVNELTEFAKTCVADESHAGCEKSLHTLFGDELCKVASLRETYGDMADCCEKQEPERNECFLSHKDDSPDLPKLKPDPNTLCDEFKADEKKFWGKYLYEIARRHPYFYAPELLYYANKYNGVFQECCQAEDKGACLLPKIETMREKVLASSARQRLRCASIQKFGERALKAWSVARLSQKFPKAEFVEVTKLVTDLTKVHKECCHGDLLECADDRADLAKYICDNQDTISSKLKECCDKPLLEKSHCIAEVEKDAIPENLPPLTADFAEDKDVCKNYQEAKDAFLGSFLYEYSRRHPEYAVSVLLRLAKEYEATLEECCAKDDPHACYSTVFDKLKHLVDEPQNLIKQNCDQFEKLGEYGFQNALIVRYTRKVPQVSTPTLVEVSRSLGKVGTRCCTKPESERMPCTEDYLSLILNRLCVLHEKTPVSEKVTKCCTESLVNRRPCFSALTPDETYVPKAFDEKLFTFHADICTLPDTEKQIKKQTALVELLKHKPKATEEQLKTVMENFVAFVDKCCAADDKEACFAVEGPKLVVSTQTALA", "assay": "ELISA; Nbs tested on BSA protein (Figure S7); details not shown"}, "[1]": {"target": "T1, human glucose‐regulated protein 78 (hGRP78), full-length (Homo sapiens (Human)., UniProt P11021)", "T1 construct": "also called BiP; HSPA5", "T1 sequence (P11021 19-654)": "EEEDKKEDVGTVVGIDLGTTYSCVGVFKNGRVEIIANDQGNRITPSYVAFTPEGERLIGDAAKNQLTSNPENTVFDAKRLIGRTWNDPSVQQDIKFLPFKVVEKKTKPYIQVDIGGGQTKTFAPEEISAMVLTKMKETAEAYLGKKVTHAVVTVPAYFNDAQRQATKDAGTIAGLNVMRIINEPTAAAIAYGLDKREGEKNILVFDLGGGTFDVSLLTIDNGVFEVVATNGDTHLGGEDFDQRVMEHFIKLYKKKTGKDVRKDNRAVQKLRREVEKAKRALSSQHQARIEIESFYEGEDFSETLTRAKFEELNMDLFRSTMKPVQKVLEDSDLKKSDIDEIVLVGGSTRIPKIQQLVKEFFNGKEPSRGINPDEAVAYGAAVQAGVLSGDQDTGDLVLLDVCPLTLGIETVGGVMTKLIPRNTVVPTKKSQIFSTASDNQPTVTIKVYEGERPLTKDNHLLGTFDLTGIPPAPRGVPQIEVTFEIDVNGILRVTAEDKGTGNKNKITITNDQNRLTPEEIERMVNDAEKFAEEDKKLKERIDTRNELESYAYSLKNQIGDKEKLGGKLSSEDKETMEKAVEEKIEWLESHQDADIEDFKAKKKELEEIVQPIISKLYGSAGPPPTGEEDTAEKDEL", "assay": "SPR; Biacore T100; […] (10 µg mL^-1) […]; association 120 s, dissociation 300 s; […]"}, "mouse GRP78 (mGRP78)": {"target": "T2, mouse GRP78 (mGRP78) (Mus musculus (Mouse)., UniProt P20029)", "T2 construct": "also called murine GRP78", "T2 sequence (P20029 20-655)": "as the sequence (P11021 19-654) above, with Y295F, A620G, A631S counted along it", "assay": "ELISA; hGRP78 or mGRP78 (10 µg mL^-1) immobilised on plates overnight at 4 °C; blocked with 3% BSA/PBS; serially diluted HA‐tagged Nbs 1 h at RT; HRP anti‐HA; OD450"}}}
{"binder": "Nb NBD1 (VHH, source: E. coli BL21 (DE3), purified (Ni‐NTA, AKTA Pure System)) VHH: AVQLVESGGGSVQAGGSLTLSCAASINTGNPALVGWYRQAPGKQREMVAMISISGNTNYAPSVKGRFTISRDNANKTIFLQMNSLTPEDTAVYYCKKLPFGSWGQGTQVTVSS", "values": [{"measurement": "binding result", "setting": "BSA protein", "value": "no binding"}, {"measurement": "Kd", "setting": "[1]", "value": 3.4, "unit": "nM"}, {"measurement": "binding result", "setting": "mouse GRP78 (mGRP78)", "value": "binds"}]}
